For this data set, the system named is MS2 coat protein. The experiment in a line: apparent KD of MS2 coat protein; designed switch direction (-1 OFF switch, 1 ON switch): 1; higher = weaker reporter binding. The method in brief:
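Each step of the titration lasted 0.8–1.5 h at the lowest concentration and 10–20 min at the highest. The protein, SNAP-549-labelled MS2 coat protein, went from 0.7 or 1.5 nM doubling to 3 µM over RNA switches transcribed on Illumina chips by stalled E. coli RNA polymerase. Normalised cluster fluorescence was curve-fitted, and the per-design median over clusters is given as apparent KD.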

Setting [1] is: Eterna round: R95, input ligand: FMN 200 uM.
Where [2] appears, read: Eterna round: R95, input ligand: microRNA oligo, concentration not stated.
Where [3] appears, read: Eterna round: R95, input ligand: none.
Setting [4] is: input ligand: microRNA oligo, concentration not stated.

Regarding “AAAAGAAGAAGUAAGGAUAUUCAAAAGAAAACAUGAGGAUCACCCAUGUACCAAAAGAAAGAAAAGAAGAAGGUACACAAGAAAA [Same State 2 #3] (puzzle: Same State 2)”, the “apparent KD of MS2 coat protein” value worked out at 24.7 nM under setting [1], 23.2 nM under setting [2] and 22.8 nM under setting [3].
As to “GGCAGGUGCAGGCUUGCUUGCACCUGGAGACAUGAGGAUCACCCAUGUUUGGGACAAGCUUUGCUCCUCGUCUUUUC [JL ViennaUCT Isusreraar mod 7] (puzzle: Sensor for hsa-mir-208a)”, the “apparent KD of MS2 coat protein” value came to 617 nM under setting [1], 104 nM under setting [2] and 766 nM under setting [3].
On the same counts, the results for “AGUCCAGCCAGAGCUGGACAAAAGCAUGUACAUGAGGAUCACCCAUGUCAUGUACAAGCUUUUUGCUCGUCUUAAUA [Mat - hsa-mir-208a - Mod of JL - D37] (puzzle: Sensor for hsa-mir-208a)” are 632 nM, 15.4 nM and 621 nM.
Consider “AGAUGUUAAUCAGGAUAUGGGCACAUGAGGAUCACCCAUGUAUUUUCGAUGCUAUGUGGAGACGUCUAGAAGGGAUGGCUAACA [SameState NG2 #86] (Eterna round: R96, puzzle: Same State NG 2)”, for which the “apparent KD of MS2 coat protein” value is, setting by setting: (input ligand: FMN 200 uM) 165 nM; under setting [4], 126 nM; (input ligand: none) 185 nM.
Take “UAGAGAGGAAGCGAGGAUAUCGUGUGAGGUACAUGAGGAUCACCCAUGUUUGAUGUUGAGAGAGGCGAGAAGGCGCAGGAGAUUA [JR_SS2_Sub084] (puzzle: Same State 2)”: the “apparent KD of MS2 coat protein” value was found to be 34.1 nM under setting [1], 26.6 nM under setting [2] and 35.6 nM under setting [3].
On to “UAAAUAAUGAUAGGAUAUACAUGAGGAAUCCUCGUAGAAGGAUCAUGACAUGAGGAUCACCCAUGUAACGCUCGAAAGAGCGUA [Mat - Same State NG 1 - JL mod - D44] (Eterna round: R96, puzzle: Same State NG 1)”, for which the “apparent KD of MS2 coat protein” value is, setting by setting: (input ligand: FMN 200 uM) 485 nM; under setting [4], 265 nM; (input ligand: none) 219 nM.
As for “GUGGUCAGACAUGAGGAUCACCCAUGUGGAAUAAAUAAGGGACAGGAUAUGGAAUAUAGGAUAUACCAGAAGGGUUGGUUGGUG (Eterna round: R96, puzzle: Same State NG 3)”, the “apparent KD of MS2 coat protein” value turned out to be 86.2 nM (input ligand: FMN 200 uM), 68.7 nM under setting [4] and 82 nM (input ligand: none).
For the sequence “AUUAUACAUGAGGAUCACCCAUGUCAAUGUAGUCGAGGAUAUGGGCAGCUGUGAGGCGUACUAGAAGGCGAAGAGA [Mat - Same State 1 - Mod of JL - D9] (puzzle: Same State 1)”, the “apparent KD of MS2 coat protein” value came out at 59.9 nM under setting [1], 192 nM under setting [2] and 222 nM under setting [3].
“AACAAUCUAUCUGAGGAUAUCAUGAAAUUAACAUGAGGAUCACCCAUGUGCAGGAAAACUGCAUAUGAGAAGGCAGAUAGAUUGA [salish99_ss2_r3_033] (puzzle: Same State 2)”: the “apparent KD of MS2 coat protein” value was found to be 120 nM under setting [1], 1110 nM under setting [2] and 2020 nM under setting [3].
Turning to “AAAAAACAUGAGGAUCACCCAUGUAAAAAAAUGGGAGGAUAUACAAAAACAAAAAAAAAAGUAGAAGGCCUGAAAA [same state 9] (Eterna round: R96, puzzle: Same State 1)”, the “apparent KD of MS2 coat protein” value (input ligand: FMN 200 uM) came out at 59.2 nM, the “apparent KD of MS2 coat protein” value under setting [4] stood at 478 nM and the “apparent KD of MS2 coat protein” value (input ligand: none) was 520 nM.
Regarding “GGUCCAGCCUGAGCUGGACAAAAGCAUGUACAUGAGGAUCACCCAUGUCAUGUAUAAGCUUUUUGCUCGUCUUAAAA [JL mod - D87 - 11] (puzzle: Sensor for hsa-mir-208a)”, the “apparent KD of MS2 coat protein” value runs as follows: under setting [1], 20.4 nM; under setting [2], 10.5 nM; under setting [3], 20 nM.
On the same counts, the results for “UUAAAACAUGAGGAUCACCCAUGUAAUAAUAUGGGAGGAUAUCAGAUUUAAUUUAAUUUAUGAGAAGGCCUAAAUU [Mat - Same State 1 - Mod of Eli - D61] (puzzle: Same State 1)” are 58.7 nM, 163 nM and 512 nM.
As to “GGUGGGUUGCUGCCGGCACAUGAGGAUCACCCAUGUUUUGGGAAGGAUAUGGUCCCUCUUUGGUGCCAGAAGGUCCCGUUGGUG [salish99_SSNG3_r04_714] (Eterna round: R96, puzzle: Same State NG 3)”, the “apparent KD of MS2 coat protein” value (input ligand: FMN 200 uM) was found to be 691 nM, the “apparent KD of MS2 coat protein” value under setting [4] is 402 nM and the “apparent KD of MS2 coat protein” value (input ligand: none) is 743 nM.
Turning to “GUUAUACAUGAGGAUCACCCAUGUCAAUGUAGUCGAGGAUAUGGGCAGCUAUGAGGCGUACUAGAAGGCGAGGAGU [JL-ss1-3.15 ViennaUCT mod] (puzzle: Same State 1)”, the “apparent KD of MS2 coat protein” value under setting [1] worked out at 90.7 nM, the “apparent KD of MS2 coat protein” value under setting [2] was 90.5 nM and the “apparent KD of MS2 coat protein” value under setting [3] was 134 nM.
Regarding “GAGAGAGGGUGAGGAUAUAGAGUAAUAAUGAUACUAGAAGGCACAGACAUGAGGAUCACCCAUGUGGGAAUAAUCCAGAGAGAG [Parity 5 - Jieux - Same State NG 1] (Eterna round: R96, puzzle: Same State NG 1)”, the “apparent KD of MS2 coat protein” value (input ligand: FMN 200 uM) came to 300 nM, the “apparent KD of MS2 coat protein” value under setting [4] turned out to be 259 nM and the “apparent KD of MS2 coat protein” value (input ligand: none) was found to be 401 nM.
As to “GAGUAGUUGAAAGGAUAUCGAUUGUUAUAGAAUCGAGAAGGUUCUAACAUGAGGAUCACCCAUGUAGGACUAUUCCUGUGUAUC [Parity 77 - Jieux - Same State NG 1] (Eterna round: R96, puzzle: Same State NG 1)”, the “apparent KD of MS2 coat protein” value under setting [4] amounted to 9.75 nM.
With “UGGAUCUAGGCUUGCCUGGGUCCAUGCUGACAUGAGGAUCACCCAUGUGCAUCCUACAAGCUUUUUGCUUGUCAGUU (puzzle: Sensor for hsa-mir-208a)”, the “apparent KD of MS2 coat protein” value reads like this: under setting [1], 232 nM; under setting [2], 166 nM; under setting [3], 135 nM.
In the case of “AUUAUACAUGAGGAUCACCCAUGUAAUUAAUUAAUUAAGAUCUAGGAUAUCAGCUCGAAUAGAGCUGAGAAGGAGAUCACAUGU [SSNG3/20-C1] (Eterna round: R96, puzzle: Same State NG 3)”, under setting [4], the “apparent KD of MS2 coat protein” value was 24.2 nM.
In the case of “GCCGUAUAAACAUGAGGAUCACCCAUGUGCGCGAGAGCGAAUGAGGAUAUCGAUGGGUUUCCCGUCGAGAAGGCGUGGGUCGGC [JL SSNG3 3.96] (Eterna round: R96, puzzle: Same State NG 3)”, the “apparent KD of MS2 coat protein” value by setting is: (input ligand: FMN 200 uM) 37.7 nM; under setting [4], 76.4 nM; (input ligand: none) 96.3 nM.
With “ACUUAGUACAAUUUAGAUCUACAUGAGGAUCACCCAUGUACUGAGGAUAUCAGCUCGAAUAGAGCUGAGAAGGCAGUAGUACUA [SSNG3/9-A1] (Eterna round: R96, puzzle: Same State NG 3)”, the “apparent KD of MS2 coat protein” value is 47.4 nM (input ligand: FMN 200 uM), 42.6 nM under setting [4] and 50.2 nM (input ligand: none).
“GUAUAACAUGAGGAUCACCCAUGUCAACAAAGUCGAGGAUAUGGGCAUAUAAUAUAUGAACCAGAAGGCGAAUAUG [Mat - Same State 1 - Mod of UCT - D36] (puzzle: Same State 1)”: the “apparent KD of MS2 coat protein” value by setting is: under setting [1], 34.2 nM; under setting [2], 37.9 nM; under setting [3], 56.7 nM.

(Values after the supplement of paper PMC9170038.)
